Target: the molecule itself
Experiment: SEC

B1: Vibrio cholerae HlyU (VcHlyU), transcriptional activator of hlyA (natural protein)
chain: MPYLKGAPMNLQEMEKNSAKAVVLLKAMANERRLQILCMLLDNELSVGELSSRLELSQSALSQHLAWLRRDGLVNTRKEAQTVFYTLSSTEVKAMIELLHRLYCQANQ
stoichiometry N: 2
